Assay results reported in patent US20140050720A1, “ULTRALONG COMPLEMENTARITY DETERMINING REGIONS AND USES THEREOF” (THE SCRIPPS RESEARCH INSTITUTE, priority 2012, published 2014).

Columns and labels:
CXCR1-U2OS = target: T1, CXCR1-U2OS (Homo sapiens, UniProt P25024); assay: Flow cytometry binding to CXCR1 expressing cells; conditions: CXCR1-U2OS cells, cell culture supernatant containing expressed IgG, anti-Human Fc detection
T1 construct: host or cells: U2OS-derived CXCR1 cell line, purchased
T1 sequence (P25024 1-350): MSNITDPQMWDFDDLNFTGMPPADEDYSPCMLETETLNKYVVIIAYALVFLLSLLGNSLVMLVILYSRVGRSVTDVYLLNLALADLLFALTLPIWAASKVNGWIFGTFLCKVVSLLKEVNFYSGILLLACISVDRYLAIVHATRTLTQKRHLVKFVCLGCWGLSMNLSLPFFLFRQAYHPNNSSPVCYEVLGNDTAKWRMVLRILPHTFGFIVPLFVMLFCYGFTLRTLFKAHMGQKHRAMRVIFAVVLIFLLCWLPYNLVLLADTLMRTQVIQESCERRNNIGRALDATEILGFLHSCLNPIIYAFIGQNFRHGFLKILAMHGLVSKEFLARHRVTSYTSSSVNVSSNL
Description: Briefly, a cell line expressing functionally validated CXCR1 derived from U2OS cells was obtained from DiscoveRx and cultured per manufacturer's instructions (Cat#93-0226C3, DiscoveRx Corporation, Freemont, Calif.). The parental cell line U20S was obtained from ATCC and cultured under the same conditions as the CXCR1 cells. Cell culture supernatants from Example 2 above were then tested for binding to cells by flow cytometry. The adherent U20S or CXCR1-U20S cells were dissociated with Accutase (Innovative Cell Technologies, Inc., San Diego, Calif.), neutralized with an equal volume of media containing 10% serum, centrifuged at 1000 g, and resuspended in PBS with 2% BSA. Next, cells were dispensed into microtiter plates to achieve between 30,000 to 300,000 cells per well, centrifuged again, and resuspended in cell culture supernatant containing expressed IgG, or a dilution of IgG-containing cell culture supernatant. A fluorescent-conjugated anti-Human Fc antibody was used to detect binding of the expressedBLV1H12-IL8 fusion proteins to cells.

mice neutrophils = assay: Neutrophils counts in mice; type: in vivo; conditions: mice blood, 10th day post-injection, neutrophils among white blood cells
Description: On the 10th day after injection of BLV1H12-bGCSF fusion antibodies into mice for PK study, blood samples were drawn from the mice and stained using the Diff Quick Staining Kit (Thermo Fisher Scientific, IL). Neutrophils and white blood cells were counted under microscope and the percentages of neutrophils were analyzed. FIGS. 12A-12B and Table 12 show proliferative activities of BLV1H12-bGCSF fusion antibodies on mice neutrophils that are blood stained and counted at the 10th day post-injection.

GLP-1 receptor (GLP-1R) = target: T2, GLP-1 receptor (GLP-1R) (Homo sapiens, UniProt P43220); assay: GLP-1R activation, cAMP responsive luciferase reporter in HEK293 cells; type: cell-based; conditions: HEK293 cells expressing GLP-1R, 24 h
T2 construct: expressed in transfected cells; host or cells: HEK293 cells expressing surface GLP-1R and a cAMP responsive luciferase reporter
Description: HEK293 cells expressing surface GLP-1R and cAMP responsive luciferase reporter gene were seeded in 384 well plates at a density of 5000 cells per well. […] Subsequently, luciferase assay was performed using One-Glo luciferase reagent according manufacture's instruction (Promega).
HEK293 cells expressing surface GLP-1R and cAMP responsive luciferase reporter gene were seeded in 384 well plates at a density of 5000 cells per well. After 24 h incubation at 37° C. with 5% CO2, cells were treated with various concentrations of peptides and BLV1H12-GLP-1 clip fusion proteins and incubated for another 24 h. Subsequently, luciferase assay was performed using One-Glo luciferase reagent according manufacture's instruction (Promega).

[1] = Pharmacokinetics of BLV1H12-bGCSF fusion antibodies in mice; type: in vivo; conditions: BALB/c mice, 70 μg injected
Description: For PK study in mice, 70 μg of the immunoglobulin constructs described herein were injected into 3 BALB/c mice per group. Blood samples were drawn from time 0 to 14 days with extended intervals and analyzed by ELISA using anti-human IgG Fc antibody with horseradish peroxidase (HRP) labeled (KPL) and anti-6×His antibody with HRP labeled (Clontech). Data were normalized by taking maximal concentration at the first time point (30 min).

Mouse NFS-60 cells = assay: Proliferation assay on mouse NFS-60 cells (AlamarBlue); type: cell-based; conditions: for F.I. (AlamarBlue fluorescence at 595 nm, cell viability): 72 hours
Description: Mouse NFS-60 cells were obtained from American Type Culture Collection (ATCC), VA, and cultured in RPMI-1640 medium supplemented with 10% fetal bovine serum (FBS), 0.05 mM 2-mercapoethanol and 62 ng/ml human macrophage colony stimulating factor (M-CSF). For proliferation assay, mouse NFS-60 cells were washed three times with RPMI-1640 medium and resuspended in RPMI-1640 medium with 10% FBS and 0.05 mM 2-mercapoethanol at a density of 1.5×10^5 cells/ml. In 96-well plates, 100 μl of cell suspension was added into each well, followed by the addition of varied concentrations of bGCSF, BLV1H12 antibody, and the immunoglobulin constructs described herein, Equal volume of PBS buffer was added into the control wells. The plates were incubated at 37° C. in a 5% CO2 incubator for 72 hours. Cells were then treated with AlamarBlue (Invitrogen) ( 1/10 volume of cell suspension) for 4 hours at 37° C. Fluorescence at 595 nm for each well was read to indicate the cell viability.

T2 sequence (P43220 24-463, species assumed): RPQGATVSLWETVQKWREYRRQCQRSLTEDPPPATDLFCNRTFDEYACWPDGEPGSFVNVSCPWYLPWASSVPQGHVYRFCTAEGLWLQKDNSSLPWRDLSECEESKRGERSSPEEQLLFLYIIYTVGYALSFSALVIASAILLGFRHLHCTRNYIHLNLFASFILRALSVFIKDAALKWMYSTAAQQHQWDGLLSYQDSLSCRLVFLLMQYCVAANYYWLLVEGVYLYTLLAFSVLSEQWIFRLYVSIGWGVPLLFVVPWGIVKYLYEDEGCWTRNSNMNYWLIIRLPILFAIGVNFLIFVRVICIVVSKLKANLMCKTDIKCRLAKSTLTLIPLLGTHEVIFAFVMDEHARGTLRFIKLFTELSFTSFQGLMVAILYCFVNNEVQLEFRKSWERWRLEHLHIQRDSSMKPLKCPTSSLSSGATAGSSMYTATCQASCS

B1: Ab: bovine BLV1H12 antibody with ultralong CDR3, no inserted polypeptide; heavy chain SEQ ID NO: 24, light chain SEQ ID NO: 23 (antibody)
heavy: QVQLRESGPSLVKPSQTLSLTCTASGFSLSDKAVGWVRQAPGKALEWLGSIDTGGNTGYNPGLKSRLSITKDNSKSQVSLSVSSVTTEDSATYYCTSVHQETKKYQSCPDGYRERSDCSNRPACGTSDCCRVSVFGNCLTTLPVSYSYTYNYEWHVDVWGQGLLVTVSS
light: QAVLNQPSSVSGSLGQRVSITCSGSSSNVGNGYVSWYQLIPGSAPRTLIYGDTSRASGVPDRFSGSRSGNTATLTISSLQAEDEADYFCASAEDSSSNAVFGSGTTLTVLGQPKSPPSVTLFPPSTEELNGNKATLVCLISDFYPGSVTVVWKADGSTITRNVETTRASKQSNSKYAASSYLSLTSSDWKSKGSYSCEVTHEGSTVTKTVKPSECS
Median Arbitrary Fluorescence Units (AFU) (CXCR1-U2OS): 4 AFU | Percentage of Neutrophil (mice neutrophils): 18.81 | RLU (luciferase reporter) (GLP-1 receptor (GLP-1R); 1.26953 nM): 5200 | RLU (luciferase reporter) (GLP-1 receptor (GLP-1R); 2.53906 nM): 5000 | RLU (luciferase reporter) (GLP-1 receptor (GLP-1R); 5.07813 nM): 5600 | RLU (luciferase reporter) (GLP-1 receptor (GLP-1R); 10.15625 nM): 5500 | RLU (luciferase reporter) (GLP-1 receptor (GLP-1R); 20.3125 nM): 5380 | RLU (luciferase reporter) (GLP-1 receptor (GLP-1R); 40.625 nM): 4600 | RLU (luciferase reporter) (GLP-1 receptor (GLP-1R); 81.25 nM): 6140 | RLU (luciferase reporter) (GLP-1 receptor (GLP-1R); 162.5 nM): 5760 | RLU (luciferase reporter) (GLP-1 receptor (GLP-1R); 325 nM): 5600 | RLU (luciferase reporter) (GLP-1 receptor (GLP-1R); 650 nM): 5800 | RLU (luciferase reporter) (GLP-1 receptor (GLP-1R); 1300 nM): 14000 | Percentage (normalized to maximal concentration at the first time point, 30 min) ([1]; day 0.021): 100.00% | Percentage (normalized to maximal concentration at the first time point, 30 min) ([1]; day 0.042): 106.09% | Percentage (normalized to maximal concentration at the first time point, 30 min) ([1]; day 0.083): 95.88% | Percentage (normalized to maximal concentration at the first time point, 30 min) ([1]; day 0.125): 86.54% | Percentage (normalized to maximal concentration at the first time point, 30 min) ([1]; day 0.250): 74.26% | Percentage (normalized to maximal concentration at the first time point, 30 min) ([1]; day 1.000): 52.43% | Percentage (normalized to maximal concentration at the first time point, 30 min) ([1]; day 2.000): 39.46% | Percentage (normalized to maximal concentration at the first time point, 30 min) ([1]; day 3.000): 36.97% | Percentage (normalized to maximal concentration at the first time point, 30 min) ([1]; day 8.000): 45.44% | Percentage (normalized to maximal concentration at the first time point, 30 min) ([1]; day 10.000): 40.98% | Percentage (normalized to maximal concentration at the first time point, 30 min) ([1]; day 14.000): 51.96% | proliferative activity on mouse NFS-60 cells (Mouse NFS-60 cells): lack of proliferative activity | F.I. (AlamarBlue fluorescence at 595 nm, cell viability) (Mouse NFS-60 cells; 0.45725 ng/mL): 1040 | F.I. (AlamarBlue fluorescence at 595 nm, cell viability) (Mouse NFS-60 cells; 1.37174 ng/mL): 1010 | F.I. (AlamarBlue fluorescence at 595 nm, cell viability) (Mouse NFS-60 cells; 4.11523 ng/mL): 983.3 | F.I. (AlamarBlue fluorescence at 595 nm, cell viability) (Mouse NFS-60 cells; 12.34568 ng/mL): 971.8 | F.I. (AlamarBlue fluorescence at 595 nm, cell viability) (Mouse NFS-60 cells; 37.03704 ng/mL): 960.5 | F.I. (AlamarBlue fluorescence at 595 nm, cell viability) (Mouse NFS-60 cells; 111.11111 ng/mL): 991.83 | F.I. (AlamarBlue fluorescence at 595 nm, cell viability) (Mouse NFS-60 cells; 333.33333 ng/mL): 964.798
